Data on two substances can be found in patent publication US20110059082A1.

Experiment [1] concerns the target complement factor C1q (purified recombinant C1q) (UniProt P02745). The experiment can be described thus: flow cytometry, C1q binding to antibody-coated PBMCs, FITC anti-C1q; antibody 1.2 µg/ml.
The target is the same in experiment [2]. The experiment can be described thus: flow cytometry, C1q binding to antibody-coated PBMCs, FITC anti-C1q; antibody 150 µg/ml.
The target is the same in experiment [3]. The experiment can be described thus: flow cytometry, C1q binding to antibody-coated PBMCs, FITC anti-C1q; antibody 2.3 µg/ml.
For experiment [4] the target is unchanged. The experiment can be described thus: flow cytometry, C1q binding to antibody-coated PBMCs, FITC anti-C1q; antibody 4.7 µg/ml.
The target is the same in experiment [5]. Kind of experiment: flow cytometry, C1q binding to antibody-coated PBMCs, FITC anti-C1q; antibody 9.4 µg/ml.
For experiment [6] the target is unchanged. Kind of experiment: flow cytometry, C1q binding to antibody-coated PBMCs, FITC anti-C1q; antibody 18.8 µg/ml.
Experiment [7] has the same target. Kind of experiment: flow cytometry, C1q binding to antibody-coated PBMCs, FITC anti-C1q; antibody 37.5 µg/ml.
Experiment [8] shares this target. The experiment can be described thus: flow cytometry, C1q binding to antibody-coated PBMCs, FITC anti-C1q; antibody 75.0 µg/ml.

Chain of complement factor C1q (purified recombinant C1q) (P02745 23-245, chain 1 of 3): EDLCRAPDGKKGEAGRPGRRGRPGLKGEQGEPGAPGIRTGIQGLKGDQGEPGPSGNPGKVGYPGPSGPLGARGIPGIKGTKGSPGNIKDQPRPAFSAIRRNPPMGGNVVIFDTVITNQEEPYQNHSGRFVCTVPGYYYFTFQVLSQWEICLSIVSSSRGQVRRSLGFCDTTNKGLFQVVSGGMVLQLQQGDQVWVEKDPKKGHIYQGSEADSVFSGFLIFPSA
Chain of complement factor C1q (purified recombinant C1q) (P02746 28-253, chain 2 of 3, further chain): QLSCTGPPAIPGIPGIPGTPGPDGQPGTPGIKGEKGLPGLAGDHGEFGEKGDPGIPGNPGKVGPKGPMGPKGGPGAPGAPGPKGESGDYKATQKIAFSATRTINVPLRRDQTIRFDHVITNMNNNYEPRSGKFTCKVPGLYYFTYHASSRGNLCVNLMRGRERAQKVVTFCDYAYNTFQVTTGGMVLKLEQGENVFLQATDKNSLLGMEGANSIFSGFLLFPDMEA
Chain of complement factor C1q (purified recombinant C1q) (P02747 29-245, chain 3 of 3, further chain): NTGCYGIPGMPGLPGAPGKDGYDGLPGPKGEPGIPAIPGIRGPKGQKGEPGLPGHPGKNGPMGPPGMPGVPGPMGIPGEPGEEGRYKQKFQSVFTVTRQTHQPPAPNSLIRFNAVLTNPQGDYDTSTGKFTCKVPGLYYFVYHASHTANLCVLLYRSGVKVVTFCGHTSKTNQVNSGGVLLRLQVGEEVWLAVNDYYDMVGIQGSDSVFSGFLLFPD

Take “humanized B-F5 H37L/L4M IgG1 (BT061) (antibody)”: the Mean fluorescence intensity in experiment [1] came to 193 MFI; in experiment [2], 199 MFI; in experiment [3] it was 199 MFI; in experiment [4], 198 MFI; in experiment [5] it was 210 MFI; in experiment [6], 217 MFI. Moreover, the results for the Mean fluorescence intensity in experiment [7] and in experiment [8] were 205 MFI and 200 MFI, respectively.
ATG (Tecelac) (antibody): the Mean fluorescence intensity in experiment [1] is 302 MFI; in experiment [2], 782 MFI; in experiment [3] it was 371 MFI; in experiment [4] it was 491 MFI; in experiment [5] it was 541 MFI; in experiment [6], 672 MFI. Further, the Mean fluorescence intensity amounted to 732 MFI in experiment [7] and 766 MFI in experiment [8].
